Measured values published in US20240025995A1.

How the values were obtained:
[1] = biological target: human FcγRIIb on CHOK1 cells overexpressing FcγRIIb (human) (UniProt P31994); assay: flow cytometry on CHOK1 cells overexpressing FcγRIIb; detection with anti-human kappa antibody
[2] = biological target: human FcγRIIa (R131) on CHOK1 cells overexpressing FcγRIIa (R131) (human) (UniProt P12318); assay: flow cytometry on CHOK1 cells overexpressing FcγRIIa (R131); detection with anti-human kappa antibody
Chain of UniProt P12318 (P12318 34-317 H167R): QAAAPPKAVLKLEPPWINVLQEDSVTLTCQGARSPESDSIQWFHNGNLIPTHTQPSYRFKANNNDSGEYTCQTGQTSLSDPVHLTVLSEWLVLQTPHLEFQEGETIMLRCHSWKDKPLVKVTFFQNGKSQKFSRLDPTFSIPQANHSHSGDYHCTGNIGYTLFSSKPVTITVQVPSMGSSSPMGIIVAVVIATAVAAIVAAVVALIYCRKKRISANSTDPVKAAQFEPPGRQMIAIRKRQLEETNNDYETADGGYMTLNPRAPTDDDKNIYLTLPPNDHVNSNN

Chain of UniProt P31994 (P31994 43-310): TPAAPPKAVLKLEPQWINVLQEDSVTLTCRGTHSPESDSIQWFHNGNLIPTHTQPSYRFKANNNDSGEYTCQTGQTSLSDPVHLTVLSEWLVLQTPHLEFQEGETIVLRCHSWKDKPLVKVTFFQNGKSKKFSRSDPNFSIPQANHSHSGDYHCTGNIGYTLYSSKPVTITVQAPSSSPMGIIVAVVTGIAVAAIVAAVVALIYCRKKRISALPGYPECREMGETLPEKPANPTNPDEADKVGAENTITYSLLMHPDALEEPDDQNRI

| Log EC50 [1] | Log EC50 [2] | Substance |
| --- | --- | --- |
| -0.0779 |  | anti-LAG3 SELF (from UniProt P01857 1-330) (antibody) |
| 4.42 | 3.9 | anti-RSV AAA (from UniProt P01857 1-330) (antibody) |
